Measured values as given in patent US20030232013A1, “Therapeutic and diagnostic targeting of cancers cells with tumor homing peptides” (priority 2002, published 2003).
Like-named read-outs stand apart in the source and are kept apart here. Bridge positions count the residues as written; N and C are the ends. Peptide text beside a SMILES is read from it. * marks the point of attachment. DOTA = O=C(O)CN1CCN(CC(=O)O)CCN(CC(=O)*)CCN(CC(=O)O)CC1

Columns and labels:
[1] = In vivo biodistribution in T47D tumor bearing SCID mice; conditions: female, ICR SCID, mouse, iv, total radioactivity, n = 4; for tissue uptake at 1 h / dose excreted at 1 h: 1 hour post-injection; for tissue uptake at 24 h / dose excreted at 24 h: 24 hours post-injection
From the text: (§1) In vivo iodistribution studies. Four- to 5-week old female ICR SCID ([…]) outbred mice were obtained from Taconic (Germantown, N.Y.). The mice were housed five animals per cage in sterile micro isolator cages in a temperature- and humidity-controlled room with a 12-hour light/12-hour dark schedule. The animals were fed autoclaved rodent chow (Ralston Purina Company, St. Louis, Mo.) and water ad libitum. Animals were housed one week prior to inoculation of tumor cells and anesthetized for injections with isoflurane (Baxter Healthcare Corp., Deerfield, Ill.) at a rate of 2.5% with 0.4L oxygen through a non-rebreathing anesthesia vaporizer.
(§2) Human breast cancer MB231 and T47D cells were injected on the bilateral subcutaneous (s.c.) flank with ˜5×10^6 cells in a suspension of 100 μl normal sterile saline per injection site. MB231 and T47D cells were allowed to grow in vivo two to three weeks post inoculation developing tumors ranging in sizes from 0.02-1.30 grams. The biodistribution and uptake of ^111In-DOTA-Phe^19-STh or ^111In-DOTA-6-Ahx-Phe^19-STh in tumor bearing SCID mice was studied. The mice (average weight, 25 g) were injected with aliquots (50-100 μl) of the radiolabeled peptide solution (55-75 kBq) in each animal via the tail vein. Tissues, organs and tumors were excised from the animals sacrificed at 1 hr, 4 hrs and 24 hrs p.i. For blocking studies, an access of non-radioactive 6-Ahx-Phe^19-STh (100 μg) was also injected along with the radiolabeled peptide solution. The radioactivity was measured in a NaI counter and the percent-injected dose per organ and the percent-injected dose per gram tissue were calculated (Tables 5 and 6). Animal studies were conducted in accordance with the highest standards of care as outlined in the NIH guide for Care and Use of Laboratory Animals and the Policy and Procedures for Animal Research at the Harry S. Truman Memorial VA Hospital and according to approved protocols.

[2] = system: T47D tumor bearing SCID mice; experiment: as above; conditions: 4 hours post-injection, n = 4
From the text: as §1, §2

[3] = T47D tumor, T47D tumor, read-out: biodistribution, Tumor
[4] = blood, read-out: biodistribution, Blood
[5] = heart, read-out: biodistribution, Heart
[6] = kidney, read-out: biodistribution, Kidney
[7] = large intestine, read-out: biodistribution, Large Intestine
[8] = liver, read-out: biodistribution, Liver
[9] = lung, read-out: biodistribution, Lung
[10] = muscle, read-out: biodistribution, Muscle
[11] = pancreas, read-out: biodistribution, Pancreas
[12] = small intestine, read-out: biodistribution, Small Intestine
[13] = spleen, read-out: biodistribution, Spleen
[14] = stomach, read-out: biodistribution, Stomach
[15] = urine, read-out: biodistribution, Urine (Avg % ID)

With `CC(C)C[C@@H]1NC(=O)[C@H](CCC(=O)O)NC(=O)[C@@H]2CSSC[C@@H]3NC(=O)[C@H](C)NC(=O)[C@@H]4CCCN4C(=O)[C@H](CC(N)=O)NC(=O)[C@H](CSSC[C@H](NC(=O)[C@H](Cc4ccc(O)cc4)NC(=O)[C@H](CC(N)=O)NC(=O)[C@H](CO)NC(=O)[C@H](CO)NC(=O)[C@H](CC(N)=O)NC(=O)CN4CCN(CC(=O)O)CCN(CC(=O)O)CCN(CC(=O)O)CC4)C(=O)N2)NC(=O)[C@H](CSSC[C@@H](C(=O)N[C@@H](Cc2ccccc2)C(=O)O)NC(=O)CNC(=O)[C@H]([C@@H](C)O)NC3=O)NC1=O` [^111In-DOTA-Phe^19-STh, metal not drawn] ({DOTA}-NSSNYCCELCCNPACTGCF-OH; disulfide 6-11, 7-15, 10-18) the tissue uptake at 1 h ([1]; T47D tumor, T47D tumor, Blocking (100 μg non-radioactive 6-Ahx-Phe^19-STh co-injected), read-out: biodistribution, Tumor) was 0.43 ± 0.2 %ID/g, the tissue uptake at 1 h [1, 3] was 0.67 ± 0.23 %ID/g and the tissue uptake at 4 h ([1]; T47D tumor, T47D tumor, 4 hours post-injection, read-out: biodistribution, Tumor) was 0.17 ± 0.16 %ID/g. It also gave a tissue uptake at 24 h [1, 3] of 0.14 ± 0.12 %ID/g, a tissue uptake at 1 h ([1]; blood, Blocking (100 μg non-radioactive 6-Ahx-Phe^19-STh co-injected), read-out: biodistribution, Blood) of 0.57 ± 0.19 %ID/g and a tissue uptake at 1 h [1, 4] of 0.82 ± 0.34 %ID/g. The tissue uptake at 4 h ([1]; blood, 4 hours post-injection, read-out: biodistribution, Blood) was 0.01 ± 0.01 %ID/g, the tissue uptake at 24 h [1, 4] was 0.02 ± 0.01 %ID/g and the dose excreted at 24 h ([1]; faeces, read-out: biodistribution, Feces (Avg % ID)) was 1.4 ± 0.7%. The tissue uptake at 1 h ([1]; heart, Blocking (100 μg non-radioactive 6-Ahx-Phe^19-STh co-injected), read-out: biodistribution, Heart) was 0.13 ± 0.1 %ID/g, the tissue uptake at 1 h [1, 5] was 0.15 ± 0.11 %ID/g and the tissue uptake at 24 h [1, 5] was 0.08 ± 0.08 %ID/g. For the same compound, the tissue uptake at 1 h ([1]; kidney, Blocking (100 μg non-radioactive 6-Ahx-Phe^19-STh co-injected), read-out: biodistribution, Kidney) was 5.88 ± 1.47 %ID/g, the tissue uptake at 1 h [1, 6] was 4.7 ± 1.4 %ID/g and the tissue uptake at 4 h ([1]; kidney, 4 hours post-injection, read-out: biodistribution, Kidney) was 2.02 ± 0.35 %ID/g. The tissue uptake at 24 h [1, 6] was 1.04 ± 0.33 %ID/g, the tissue uptake at 1 h ([1]; large intestine, Blocking (100 μg non-radioactive 6-Ahx-Phe^19-STh co-injected), read-out: biodistribution, Large Intestine) was 0.17 ± 0.06 %ID/g and the tissue uptake at 1 h [1, 7] was 0.57 ± 0.21 %ID/g. It also gave a tissue uptake at 4 h ([1]; large intestine, 4 hours post-injection, read-out: biodistribution, Large Intestine) of 1.74 ± 1.04 %ID/g, a tissue uptake at 24 h [1, 7] of 0.1 ± 0.03 %ID/g and a tissue uptake at 1 h ([1]; liver, Blocking (100 μg non-radioactive 6-Ahx-Phe^19-STh co-injected), read-out: biodistribution, Liver) of 0.19 ± 0.04 %ID/g. The tissue uptake at 1 h [1, 8] was 0.26 ± 0.12 %ID/g, the tissue uptake at 4 h ([1]; liver, 4 hours post-injection, read-out: biodistribution, Liver) was 0.06 ± 0.01 %ID/g and the tissue uptake at 24 h [1, 8] was 0.03 ± 0.01 %ID/g. For the same compound, the tissue uptake at 1 h ([1]; lung, Blocking (100 μg non-radioactive 6-Ahx-Phe^19-STh co-injected), read-out: biodistribution, Lung) was 0.45 ± 0.16 %ID/g, the tissue uptake at 1 h [1, 9] was 0.56 ± 0.19 %ID/g and the tissue uptake at 4 h ([1]; lung, 4 hours post-injection, read-out: biodistribution, Lung) was 0.09 ± 0.06 %ID/g. The tissue uptake at 24 h [1, 9] was 0.06 ± 0.03 %ID/g, the tissue uptake at 1 h ([1]; muscle, Blocking (100 μg non-radioactive 6-Ahx-Phe^19-STh co-injected), read-out: biodistribution, Muscle) was 0.18 ± 0.08 %ID/g and the tissue uptake at 1 h [1, 10] was 0.19 ± 0.08 %ID/g. The tissue uptake at 4 h ([1]; muscle, 4 hours post-injection, read-out: biodistribution, Muscle) was 0.06 ± 0.04 %ID/g, the tissue uptake at 24 h [1, 10] was 0.04 ± 0.03 %ID/g and the tissue uptake at 1 h ([1]; pancreas, Blocking (100 μg non-radioactive 6-Ahx-Phe^19-STh co-injected), read-out: biodistribution, Pancreas) was 0.16 ± 0.07 %ID/g. It also gave a tissue uptake at 1 h [1, 11] of 0.21 ± 0.09 %ID/g, a tissue uptake at 4 h ([1]; pancreas, 4 hours post-injection, read-out: biodistribution, Pancreas) of 0.04 ± 0.05 %ID/g and a tissue uptake at 24 h [1, 11] of 0.02 ± 0.03 %ID/g. For the same compound, the tissue uptake at 1 h ([1]; small intestine, Blocking (100 μg non-radioactive 6-Ahx-Phe^19-STh co-injected), read-out: biodistribution, Small Intestine) was 0.25 ± 0.1 %ID/g, the tissue uptake at 1 h [1, 12] was 1.37 ± 0.55 %ID/g and the tissue uptake at 4 h ([1]; small intestine, 4 hours post-injection, read-out: biodistribution, Small Intestine) was 0.44 ± 0.07 %ID/g. For the same compound, the tissue uptake at 24 h [1, 12] was 0.09 ± 0.02 %ID/g, the tissue uptake at 1 h ([1]; spleen, Blocking (100 μg non-radioactive 6-Ahx-Phe^19-STh co-injected), read-out: biodistribution, Spleen) was 0.12 ± 0.07 %ID/g and the tissue uptake at 1 h [1, 13] was 0.19 ± 0.16 %ID/g. For the same compound, the tissue uptake at 4 h ([1]; spleen, 4 hours post-injection, read-out: biodistribution, Spleen) was 0.13 ± 0.15 %ID/g, the tissue uptake at 24 h [1, 13] was 0.12 ± 0.08 %ID/g and the tissue uptake at 1 h ([1]; stomach, Blocking (100 μg non-radioactive 6-Ahx-Phe^19-STh co-injected), read-out: biodistribution, Stomach) was 0.61 ± 0.64 %ID/g. It also gave a tissue uptake at 1 h [1, 14] of 0.53 ± 0.47 %ID/g, a tissue uptake at 4 h ([1]; stomach, 4 hours post-injection, read-out: biodistribution, Stomach) of 0.17 ± 0.06 %ID/g and a tissue uptake at 24 h [1, 14] of 0.02 ± 0.01 %ID/g. The dose excreted at 1 h ([1]; urine, Blocking (100 μg non-radioactive 6-Ahx-Phe^19-STh co-injected), read-out: biodistribution, Urine (Avg % ID)) was 93.1 ± 1.5%, the dose excreted at 1 h [1, 15] was 86.4 ± 5% and the dose excreted at 4 h ([1]; urine, 4 hours post-injection, read-out: biodistribution, Urine (Avg % ID)) was 96.1 ± 1%. For the same compound, the dose excreted at 24 h [1, 15] was 97.8 ± 0.7% and the “biodistribution, Heart” value [2] was 0.00 ± 0.00 % ID/gm.
